Consider five molecules from paper PMC6238601, “Specificity for deubiquitination of monoubiquitinated FANCD2 is driven by the N-terminus of USP1” (Life Science Alliance, 2018).

Assay in all cases: pull-down; N-terminal Strep-tagged UAF1 complexed with E. coli USP1, 10 μg bound to MagStrep beads and washed; 10 μg recombinant substrate, 1 h on ice; 50 mM Tris pH 7.5, 120 mM NaCl, 5% glycerol, 1 mM DTT, 0.01% Triton X-100, 0.01% ovalbumin; SDS-PAGE; beads without USP1–UAF1 as control
Details in all cases: both partners purified

In assay [1] the target is T1, human FANCD2 (hsFANCD2), non-ubiquitinated (human, UniProt Q9BXW9 1-1451).
T1 construct: FANCD2 (Fanconi anemia group D2 protein), human, full length; gene synthesised and optimised for Spodoptera frugiperda; His-3C tag; tags were not removed from FANCD2; also called Fanconi anemia group D2 protein; source: Sf21 (baculovirus), purified (Ni-NTA, anion exchange, SEC)

Assay [2] has as its target T2, UAF1 with an N-terminal Strep tag (human, UniProt Q8TAF3 1-677).
T2 construct: UAF1 (USP1-associated factor 1), human; Strep11 tag and linker GGSGGS were added N-terminal of the His-3C tag; as the Strep tag is used for capture, the His-3C stretch was probably kept too (surmise); also called Strep-tagged UAF1; N-terminal Strep-tagged UAF1; source: Sf21 (baculovirus), purified; not shown: Strep11, N-terminal, kept

Assay [3] has as its target T3, human PCNA-K164Ub (hsPCNA-Ub) (human | , UniProt P12004 1-261; P0CG48 1-76, K164 monoubiquitinated (isopeptide bond to ubiquitin) | C-terminus linked to K164 of PCNA).
T3 construct: PCNA, human; ubiquitin; Covalent conjugate; also called monoubiquitinated PCNA

B1: USP1^Δ1Δ2-R22K–UAF1 complex (Strep-tagged UAF1) (complex)
chain 1: MPGVIPSESNGLSRGSPSKKNKLSLKFFQKKETKRALDFTDSQENEEKASEYRASEIDQVVPAAQSSPINCEKRENLLPFVGLNNLGNTCYLNSILQVLYFCPGFKSGVKHLFNIISRKKEALKDEANQKDKGNCKEDSLASYELICSLQSLIISVEQLQASFLLNPEKYTDELATQPRRLLNTLRELNPMYEGYLQHDAQEVLQCILGNIQETCQLLKKEEVKNVAENEVKPINKGEEQIGFELVEKLFQGQLVLRTRCLECESLTERREDFQDISVPVQEDELSKVEESSEISPEPKTEMKTLRWAISQFASVERIVGEDKYFCENCHHYTEAERSLLFDKMPEVITIHLKCFAASGLEFDCYGGGLSKINTPLLTPLKLSLEEWSTKPTNDSYGLFAVVMHSGITISSGHYTASVKVTDLNSLEQSLKEYEGKWLLFDDSEVKVTEEKDFLNSLSPSTSPTSTPYLLFYKKL
chain 2: not shown
notes: USP1, human; Δ229–408, Δ608–737, R22K; as m11; UAF1, human; as m7; source: E. coli USP1^Δ1Δ2-R22K complexed with Sf21 Strep-UAF1, both purified; not shown: Strep11, N-terminal, kept
For the molecule B1, the binding result in assay [1] is on record as “binds”.

B2: USP1^Δ1Δ2 (Δ229–408, Δ608–737), E. coli-expressed (enzyme, human, UniProt O94782 1-785, looked up)
chain: MPGVIPSESNGLSRGSPSKKNRLSLKFFQKKETKRALDFTDSQENEEKASEYRASEIDQVVPAAQSSPINCEKRENLLPFVGLNNLGNTCYLNSILQVLYFCPGFKSGVKHLFNIISRKKEALKDEANQKDKGNCKEDSLASYELICSLQSLIISVEQLQASFLLNPEKYTDELATQPRRLLNTLRELNPMYEGYLQHDAQEVLQCILGNIQETCQLLKKEEVKNVAENEVKPINKGEEQIGFELVEKLFQGQLVLRTRCLECESLTERREDFQDISVPVQEDELSKVEESSEISPEPKTEMKTLRWAISQFASVERIVGEDKYFCENCHHYTEAERSLLFDKMPEVITIHLKCFAASGLEFDCYGGGLSKINTPLLTPLKLSLEEWSTKPTNDSYGLFAVVMHSGITISSGHYTASVKVTDLNSLEQSLKEYEGKWLLFDDSEVKVTEEKDFLNSLSPSTSPTSTPYLLFYKKL
notes: USP1, human; Insertion 1 (Δ229–408) and Insertion 2 (Δ608–737) deleted; gene synthesised and optimised for E. coli; GST-3C tag from pGEX6P; a few residues of the 3C site may be left after cleavage (surmise); also called E. coli–expressed USP1^Δ1Δ2; source: E. coli BL21, purified (GSH resin, SEC)
Turning to B2, in assay [2], the binding result was “binds”.

B3: USP1^Δ1Δ2–UAF1 complex (Strep-tagged UAF1) (complex)
chain 1: MPGVIPSESNGLSRGSPSKKNRLSLKFFQKKETKRALDFTDSQENEEKASEYRASEIDQVVPAAQSSPINCEKRENLLPFVGLNNLGNTCYLNSILQVLYFCPGFKSGVKHLFNIISRKKEALKDEANQKDKGNCKEDSLASYELICSLQSLIISVEQLQASFLLNPEKYTDELATQPRRLLNTLRELNPMYEGYLQHDAQEVLQCILGNIQETCQLLKKEEVKNVAENEVKPINKGEEQIGFELVEKLFQGQLVLRTRCLECESLTERREDFQDISVPVQEDELSKVEESSEISPEPKTEMKTLRWAISQFASVERIVGEDKYFCENCHHYTEAERSLLFDKMPEVITIHLKCFAASGLEFDCYGGGLSKINTPLLTPLKLSLEEWSTKPTNDSYGLFAVVMHSGITISSGHYTASVKVTDLNSLEQSLKEYEGKWLLFDDSEVKVTEEKDFLNSLSPSTSPTSTPYLLFYKKL
chain 2: not shown
notes: USP1, human; Δ229–408, Δ608–737; as m8; UAF1, human; as m7; Bait complex formed beforehand and held on MagStrep beads; also called UAF1–USP1; USP1–UAF1; source: E. coli USP1^Δ1Δ2 complexed with Sf21 Strep-UAF1, both purified; not shown: Strep11, N-terminal, kept
As to B3, in assay [3], the binding result was “binds”.

B4: USP1^Δ1Δ2-L25A–UAF1 complex (Strep-tagged UAF1) (complex)
chain 1: MPGVIPSESNGLSRGSPSKKNRLSAKFFQKKETKRALDFTDSQENEEKASEYRASEIDQVVPAAQSSPINCEKRENLLPFVGLNNLGNTCYLNSILQVLYFCPGFKSGVKHLFNIISRKKEALKDEANQKDKGNCKEDSLASYELICSLQSLIISVEQLQASFLLNPEKYTDELATQPRRLLNTLRELNPMYEGYLQHDAQEVLQCILGNIQETCQLLKKEEVKNVAENEVKPINKGEEQIGFELVEKLFQGQLVLRTRCLECESLTERREDFQDISVPVQEDELSKVEESSEISPEPKTEMKTLRWAISQFASVERIVGEDKYFCENCHHYTEAERSLLFDKMPEVITIHLKCFAASGLEFDCYGGGLSKINTPLLTPLKLSLEEWSTKPTNDSYGLFAVVMHSGITISSGHYTASVKVTDLNSLEQSLKEYEGKWLLFDDSEVKVTEEKDFLNSLSPSTSPTSTPYLLFYKKL
chain 2: not shown
notes: USP1, human; Δ229–408, Δ608–737, L25A; as m12; UAF1, human; as m7; source: E. coli USP1^Δ1Δ2-L25A complexed with Sf21 Strep-UAF1, both purified; not shown: Strep11, N-terminal, kept
As for B4, the binding result in assay [1] was “binds”.

B5: USP1^Δ1Δ2-R22K, E. coli-expressed (enzyme, human, UniProt O94782 1-785, looked up)
chain: MPGVIPSESNGLSRGSPSKKNKLSLKFFQKKETKRALDFTDSQENEEKASEYRASEIDQVVPAAQSSPINCEKRENLLPFVGLNNLGNTCYLNSILQVLYFCPGFKSGVKHLFNIISRKKEALKDEANQKDKGNCKEDSLASYELICSLQSLIISVEQLQASFLLNPEKYTDELATQPRRLLNTLRELNPMYEGYLQHDAQEVLQCILGNIQETCQLLKKEEVKNVAENEVKPINKGEEQIGFELVEKLFQGQLVLRTRCLECESLTERREDFQDISVPVQEDELSKVEESSEISPEPKTEMKTLRWAISQFASVERIVGEDKYFCENCHHYTEAERSLLFDKMPEVITIHLKCFAASGLEFDCYGGGLSKINTPLLTPLKLSLEEWSTKPTNDSYGLFAVVMHSGITISSGHYTASVKVTDLNSLEQSLKEYEGKWLLFDDSEVKVTEEKDFLNSLSPSTSPTSTPYLLFYKKL
notes: USP1, human; Δ229–408, Δ608–737, R22K; source: E. coli BL21, purified (GSH resin, SEC)
For B5, in assay [2], the binding result is on record as “binds”.
